From publication PMC11573789

B1: Upf1-SmBiT [S. cerevisiae] / Dbp2 [S. cerevisiae] (parent)
chain 1: MVGSGSHTPYDISNSPSDVNVQPATQLNSTLVEDDDVDNQLFEEAQVTETGFRSPSASDNSCAYCGIDSAKCVIKCNSCKKWFCNTKNGTSSSHIVNHLVLSHHNVVSLHPDSDLGDTVLECYNCGRKNVFLLGFVSAKSEAVVVLLCRIPCAQTKNANWDTDQWQPLIEDRQLLSWVAEQPTEEEKLKARLITPSQISKLEAKWRSNKDATINDIDAPEEQEAIPPLLLRYQDAYEYQRSYGPLIKLEADYDKQLKESQALEHISVSWSLALNNRHLASFTLSTFESNELKVAIGDEMILWYSGMQHPDWEGRGYIVRLPNSFQDTFTLELKPSKTPPPTHLTTGFTAEFIWKGTSYDRMQDALKKFAIDKKSISGYLYYKILGHQVVDISFDVPLPKEFSIPNFAQLNSSQSNAVSHVLQRPLSLIQGPPGTGKTVTSATIVYHLSKIHKDRILVCAPSNVAVDHLAAKLRDLGLKVVRLTAKSREDVESSVSNLALHNLVGRGAKGELKNLLKLKDEVGELSASDTKRFVKLVRKTEAEILNKADVVCCTCVGAGDKRLDTKFRTVLIDESTQASEPECLIPIVKGAKQVILVGDHQQLGPVILERKAADAGLKQSLFERLISLGHVPIRLEVQYRMNPYLSEFPSNMFYEGSLQNGVTIEQRTVPNSKFPWPIRGIPMMFWANYGREEISANGTSFLNRIEAMNCERIITKLFRDGVKPEQIGVITPYEGQRAYILQYMQMNGSLDKDLYIKVEVASVDAFQGREKDYIILSCVRANEQQAIGFLRDPRRLNVGLTRAKYGLVILGNPRSLARNTLWNHLLIHFREKGCLVEGTLDNLQLCTVQLVRPQPRKTERPMNAQFNVESEMGDFPKFQDFDAQSMVSFSGQIGDFGNAFVDNTELSSYINNEYWNFENFKSAFSQKQNRNEIDDRNLYQEEASHLNSNFARELQREEQKHELSKDFSNLGI
chain 2: MTYGGRDQQYNKTNYKSRGGDFRGGRNSDRNSYNDRPQGGNYRGGFGGRSNYNQPQELIKPNWDEELPKLPTFEKNFYVEHESVRDRSDSEIAQFRKENEMTISGHDIPKPITTFDEAGFPDYVLNEVKAEGFDKPTGIQCQGWPMALSGRDMVGIAATGSGKTLSYCLPGIVHINAQPLLAPGDGPIVLVLAPTRELAVQIQTECSKFGHSSRIRNTCVYGGVPKSQQIRDLSRGSEIVIATPGRLIDMLEIGKTNLKRVTYLVLDEADRMLDMGFEPQIRKIVDQIRPDRQTLMWSATWPKEVKQLAADYLNDPIQVQVGSLELSASHNITQIVEVVSDFEKRDRLNKYLETASQDNEYKTLIFASTKRMCDDITKYLREDGWPALAIHGDKDQRERDWVLQEFRNGRSPIMVATDVAARGIDVKGINYVINYDMPGNIEDYVHRIGRTGRAGATGTAISFFTEQNKGLGAKLISIMREANQNIPPELLKYDRRSYGGGHPRYGGGRGGRGGYGRRGGYGGGRGGYGGNRQRDGGWGNRGRSNY
B2: Upf1-SmBiT [S. cerevisiae] / Edc3 [S. cerevisiae] (parent)
chain 1: B1 chain 1
chain 2: MSQFVGFGVQVELKDGKLIQGKIAKATSKGLTLNDVQFGDGGKSQAFKVRASRLKDLKVLTVASQSGKRKQQRQQQQQNDYNQNRGEHIDWQDDDVSKIKQQEDFDFQRNLGMFNKKDVFAQLKQNDDILPENRLQGHNRKQTQLQQNNYQNDELVIPDAKKDSWNKISSRNEQSTHQSQPQQDAQDDLVLEDDEHEYDVDDIDDPKYLPITQSLNITHLIHSATNSPSINDKTKGTVINDKDQVLAKLGQMIISQSRSNSTSLPAANKQTTIRSKNTKQNIPMATPVQLLEMESITSEFFSINSAGLLENFAVNASFFLKQKLGGRARLRLQNSNPEPLVVILASDSNRSGAKALALGRHLCQTGHIRVITLFTCSQNELQDSMVKKQTDIYKKCGGKIVNSVSSLESAMETLNSPVEIVIDAMQGYDCTLSDLAGTSEVIESRIKSMISWCNKQRGSTKVWSLDIPNGFDAGSGMPDIFFSDRIEATGIICSGWPLIAINNLIANLPSLEDAVLIDIGIPQGAYSQRTSLRKFQNCDLFVTDGSLLLDL
B3: Upf1-SmBiT [S. cerevisiae] / Pat1 [S. cerevisiae] (parent)
chain 1: B1 chain 1
chain 2: MSFFGLENSGNARDGPLDFEESYKGYGEHELEENDYLNDETFGDNVQVGTDFDFGNPHSSGSSGNAIGGNGVGATARSYVAATAEGISGPRTDGTAAAGPLDLKPMESLWSTAPPPAMAPSPQSTMAPAPAPQQMAPLQPILSMQDLERQQRQMQQQFMNFHAMGHPQGLPQGPPQQQFPMQPASGQPGPSQFAPPPPPPGVNVNMNQMPMGPVQVPVQASPSPIGMSNTPSPGPVVGATKMPLQSGRRSKRDLSPEEQRRLQIRHAKVEKILKYSGLMTPRDKDFITRYQLSQIVTEDPYNEDFYFQVYKIIQRGGITSESNKGLIARAYLEHSGHRLGGRYKRTDIALQRMQSQVEKAVTVAKERPSKLKDQQAAAGNSSQDNKQANTVLGKISSTLNSKNPRRQLQIPRQQPSDPDALKDVTDSLTNVDLASSGSSSTGSSAAAVASKQRRRSSYAFNNGNGATNLNKSGGKKFILELIETVYEEILDLEANLRNGQQTDSTAMWEALHIDDSSYDVNPFISMLSFDKGIKIMPRIFNFLDKQQKLKILQKIFNELSHLQIIILSSYKTTPKPTLTQLKKVDLFQMIILKIIVSFLSNNSNFIEIMGLLLQLIRNNNVSFLTTSKIGLNLITILISRAALIKQDSSRSNILSSPEISTWNEIYDKLFTSLESKIQLIFPPREYNDHIMRLQNDKFMDEAYIWQFLASLALSGKLNHQRIIIDEVRDEIFATINEAETLQKKEKELSVLPQRSQELDTELKSIIYNKEKLYQDLNLFLNVMGLVYRDGEISELK

Variants of: B1
Assay: NanoBiT (ratiometric protein-fragment complementation assay in live yeast)
Conditions: with Dbp2 [S. cerevisiae]; four experimental replicates; read off a plot

Row | screen value [log2] | Variant
1 | 2 | chain 1 C122S

Variants of: B2
Assay: as above
Conditions: with Edc3 [S. cerevisiae]; four experimental replicates; read off a plot

Row | screen value [log2] | Variant
2 | -2.8 | chain 1 C122S

Variants of: B3
Assay: as above
Conditions: with Pat1 [S. cerevisiae]; four experimental replicates; read off a plot

Row | screen value [log2] | Variant
3 | -1.6 | chain 1 C122S
